Data: US20240309045A1, “NLRP3 INFLAMMASOME INHIBITORY PEPTIDE FOR TREATMENT OF INFLAMMATORY DISEASES” (AJOU UNIVERSITY INDUSTRY-ACADEMIC COOPERATION FOUNDATION, priority 2021, published 2024)

What was measured:
NLRP3 inflammasome [1] = target: T1, NLRP3 inflammasome (Homo sapiens, UniProt Q96P20+Q9ULZ3); assay: NLRP3-mediated IL-1β secretion ELISA (LPS priming, nigericin activation); assay type: cell-based; conditions: THP1-derived macrophages, LPS-primed, peptide 1 to 20 μM (FIG. 1E)
T1 construct: THP1-derived macrophages were primed with LPS (10 ng/ml) for 3 hours and then treated with peptides; endogenous in cells; host or cells: THP1-derived macrophages
Procedure: (§1) THP1-derived macrophages were seeded at a density of […] in a 96-well plate (BD Biosciences) and grown overnight. The next day, the cells were primed with LPS (Sigma-Aldrich) at a concentration of 10 ng/ml or human tumor necrosis factor alpha (TNF-α; R&D Systems, Minneapolis, Minn., USA) at a concentration of 100 ng/ml for 3 hours, and then treated with peptides at different concentrations for 1 hour. In order to activate the NLRP3 pathway, LPS-primed cells were stimulated for 2 hours with […] nigericin (Invivogen, Carlsbad, CA, USA), which is a known NLRP3 activator. After 6 hours of treatment, the secretion levels of IL-1β and IL-18 were evaluated using a Human IL-1β Uncoated ELISA Kit (Invitrogen) and a Human IL-18 ELISA kit (RayBiotech, Norcross, GA, USA), respectively. The secretion levels of IL-8 and TNF-α were analyzed using a Human IL-8 ELISA kit and a TNF-α ELISA Kit (Invitrogen), respectively. In all experiments, absorbance was analyzed at an appropriate wavelength using a microplate spectrophotometry system (Molecular Devices Inc., Silicon Valley, CA, USA).
(§2) Overall, activation of the NLRP3 inflammasome results not only in cleavage of pro-IL-1β and pro-IL-18, but also in release of active IL-1β and IL-18 and other soluble inflammatory mediators. Thus, NIP was mainly evaluated for regulatory effect on the NLPR3-mediated pathway through the assessment of IL-1β secretion. […]

NLRP3 inflammasome [2] = target: T1, NLRP3 inflammasome; assay: NLRP3-mediated IL-18 secretion ELISA (LPS priming, nigericin activation); assay type: cell-based; conditions: THP1-derived macrophages, LPS-primed, nigericin (FIG. 1E, 4B)
Procedure: as §1, §2

T1 sequence (Q96P20 whole entry): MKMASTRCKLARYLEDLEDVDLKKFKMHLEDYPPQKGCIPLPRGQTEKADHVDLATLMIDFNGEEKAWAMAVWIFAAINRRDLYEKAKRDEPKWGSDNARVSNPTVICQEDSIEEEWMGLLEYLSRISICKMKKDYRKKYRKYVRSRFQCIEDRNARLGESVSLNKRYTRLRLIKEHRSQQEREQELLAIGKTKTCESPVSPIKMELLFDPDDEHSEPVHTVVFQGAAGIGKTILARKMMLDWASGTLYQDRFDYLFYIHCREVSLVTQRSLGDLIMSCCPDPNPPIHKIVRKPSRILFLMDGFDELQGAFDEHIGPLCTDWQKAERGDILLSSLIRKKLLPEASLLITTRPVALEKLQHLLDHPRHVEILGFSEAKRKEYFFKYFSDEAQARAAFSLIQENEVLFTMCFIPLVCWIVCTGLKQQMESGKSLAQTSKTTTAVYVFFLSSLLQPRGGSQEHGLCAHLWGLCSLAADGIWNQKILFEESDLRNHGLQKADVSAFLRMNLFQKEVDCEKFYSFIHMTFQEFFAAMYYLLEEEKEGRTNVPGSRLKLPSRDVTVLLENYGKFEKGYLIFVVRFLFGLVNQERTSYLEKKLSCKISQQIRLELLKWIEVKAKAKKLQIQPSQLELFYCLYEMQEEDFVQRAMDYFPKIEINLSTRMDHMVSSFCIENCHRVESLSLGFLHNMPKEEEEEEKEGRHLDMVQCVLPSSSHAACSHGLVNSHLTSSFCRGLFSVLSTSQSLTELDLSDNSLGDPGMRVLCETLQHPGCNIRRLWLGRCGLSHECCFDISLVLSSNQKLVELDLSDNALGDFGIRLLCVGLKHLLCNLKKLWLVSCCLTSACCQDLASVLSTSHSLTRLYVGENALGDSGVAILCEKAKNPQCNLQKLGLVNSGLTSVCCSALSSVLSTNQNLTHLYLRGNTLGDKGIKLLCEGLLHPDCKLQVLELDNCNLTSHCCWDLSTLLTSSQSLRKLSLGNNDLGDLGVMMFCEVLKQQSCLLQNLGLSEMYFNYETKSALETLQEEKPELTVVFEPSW
T1 sequence (Q9ULZ3 whole entry): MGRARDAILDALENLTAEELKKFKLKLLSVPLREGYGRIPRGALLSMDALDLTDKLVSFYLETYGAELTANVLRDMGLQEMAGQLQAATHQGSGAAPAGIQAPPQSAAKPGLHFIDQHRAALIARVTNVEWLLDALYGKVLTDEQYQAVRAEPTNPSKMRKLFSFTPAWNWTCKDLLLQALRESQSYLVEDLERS

DALDLTDKLVS (NLRP3/ASC-inhibitory peptide 7 (NIP7)) [evaluated fused at the N-terminus with penetratin]
Inhibition of NLPR3-mediated IL-1β secretion (NLRP3 inflammasome [1]): did not have the ability to inhibit
Inhibition of IL-18 secretion (NLRP3 inflammasome [2]): did not have the ability to inhibit
